Columns and labels:
immobilized STAT3 = immobilized STAT3 (Homo sapiens, UniProt P40763); experiment: Static adsorption equilibrium assay, immobilized STAT3; format: binding
Description: Considering that the SH2 domain predominantly represents the inhibition of SHF on STAT3 dimerization and activity, we speculated that this domain may be an optional target for GBM suppression. To this end, we analyzed the mechanical interaction of SHF and STAT3. The structures of human SHF (aa265‐421) and STAT3 (aa130‐715). both of which spanned their respective SH2 domain. were simulated by Swiss‐Model server (https://swissmodel.expasy.org/). To simulate the interaction of SHF and STAT3, Discovery studio 2018 was employed to complete protein‐protein docking using ZDOCK as an initial stage. A rigid body molecular docking algorithm utilizing a fast Fourier transform (FFT) algorithm was used to further improve performance for searching in translational space. All the available structures from PDB were used to calculate the docking poses and the structures obtained were subjected to energy minimization filtration using the smart minimize algorithm (Max steps 200, RMS gradient 0.01). The highest resulting ZDock score was used as the appropriate conformational pose. […] Since these two spots are located closely to one another, the sequence spanning amino acids 388–421 was used as a peptide design master. To obtain a peptide with high internalization efficiency and a strong half‐life, we introduced a palmitic acid at the N‐terminus of the master sequence and amidated the C‐terminus. The designed peptide was named C16. A scrambled peptide containing a scrambled sequence targeting Spot1 was named SC and served as a negative control peptide. […] The static adsorption equilibrium experiment of immobilized STAT3 peptide was used to detect the binding rate of the synthesized peptide with STAT3 (Figure 7C). The concentration of immobilized STAT3 used was 85 nmol g^−1 wet gel. […] Thus, C16 acted as a powerful inhibitor of STAT3 dimerization and associated activity. Next, we determined the implication of C16 in tumor inhibition. […] A concentration of 25 uM was determined to be adequate for use in the subsequent experiments. […] Further, the impact of C16 on tumor propagation was examined in an intracranial xenograft model. U87 cells expressing luciferase were implanted into mouse brains. The mice were injected intraperitoneally (i.p.) with C16 or SC once every 2 days from the third day after cell transplantation. […] To investigate the effect of C16 on cell proliferation, EdU was injected 24 h prior to sacrifice.
Figure 7 Peptide derived from the STAT3‐binding sites of SHF is an effective GBM suppressive strategy. A) Binding model between SHF and STAT3 using ZDOCK server. […] B) IF staining determined the cell penetrability and nuclear‐localization of C16. U251 cells were incubated with C16 or SC for 2 h and performed IF staining using the indicated antibodies. Bars, 10 µm. C) The statical analysis of adsorption equilibrium assay detecting the binding of C16 and SC with recombinant STAT3. D) Pull‐down assay indicating C16 binds STAT3. GST‐STAT3 was incubated with C16 or SC for 2 h, and the pull‐down assay was performed using Anti‐His magnetic beads. E) IP assay showing the effect of C16 on STAT3 dimerization. 293T cells transfected with indicated vectors were incubated with C16 for 2 h. The relative quantification of STAT3 dimerization was listed. F) IP assay detecting the effect of C16 on the interaction of STAT3 and DNMT1. […] The relative quantification of STAT3/DNMT1 interaction was listed. […] The relative quantification of STAT3/DNMT1 interaction was listed. […]

U87 cells = experiment: Cell growth assay (CCK-8), U87; format: cell-based, human; details: n=6
Procedure: (§1) Cell growth was quantified using the Cell Counting Kit‐8 Assay Kit (Bimake, Houston, TX). Each experiment was repeated at least six times. For the colony formation assay, 800 cells were seeded into each well of a six‐well plate with soft agar (Agarose; Sigma, St. Louis, MO) and maintained in a medium containing 10% FBS for 14 days. The colonies were fixed with methanol and stained with 0.1% crystal violet; the clones containing at least 50 cells were counted using an inverted microscope.
(§2) Supplementary Fig. 9 C16 inhibits tumor growth and promotes chemosensitivity in vitro.
(§3) B. Colony formation of cells treated with SC or C16 (left) and the accompanying statistical
(§4) analysis (right; n=6, Student’s t-test, **P < 0.01).
(§5) C. Annexin V staining flow cytometry assay of cells simultaneously treated with Dox with SC or
(§6) C16 for 48 h (n=3, Student’s t-test, *P < 0.05, **P < 0.01).
(§7) (1 picture or pasted object on this page, not shown here)

U118 cells = experiment: Cell growth assay (CCK-8), U118; format: cell-based, human; details: n=6
Procedure: as §1, §2, §3, §4, §5, §6, §7

immobilized STAT3, sequence (P40763 whole entry, the tested form may be a part): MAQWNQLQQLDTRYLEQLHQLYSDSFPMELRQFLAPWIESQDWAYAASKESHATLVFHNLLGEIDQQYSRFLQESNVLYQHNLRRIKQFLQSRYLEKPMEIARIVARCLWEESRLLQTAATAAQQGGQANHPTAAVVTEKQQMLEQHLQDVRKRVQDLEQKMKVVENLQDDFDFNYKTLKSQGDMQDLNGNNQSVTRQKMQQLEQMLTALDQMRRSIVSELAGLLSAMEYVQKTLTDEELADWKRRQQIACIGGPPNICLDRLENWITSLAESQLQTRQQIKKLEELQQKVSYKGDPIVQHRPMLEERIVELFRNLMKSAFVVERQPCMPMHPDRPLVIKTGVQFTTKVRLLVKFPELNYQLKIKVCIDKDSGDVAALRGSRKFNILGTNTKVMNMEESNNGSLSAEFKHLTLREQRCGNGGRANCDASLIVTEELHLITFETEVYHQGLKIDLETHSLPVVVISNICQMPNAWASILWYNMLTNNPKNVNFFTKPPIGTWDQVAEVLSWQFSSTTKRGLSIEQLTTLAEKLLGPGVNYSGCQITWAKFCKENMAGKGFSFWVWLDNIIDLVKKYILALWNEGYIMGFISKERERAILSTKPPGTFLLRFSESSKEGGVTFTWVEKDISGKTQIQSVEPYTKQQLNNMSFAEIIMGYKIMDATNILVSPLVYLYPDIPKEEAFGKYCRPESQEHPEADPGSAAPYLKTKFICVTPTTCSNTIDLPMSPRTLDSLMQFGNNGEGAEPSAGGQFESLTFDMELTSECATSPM

maximum static adsorption (Qmax) (immobilized STAT3; immobilized STAT3 85 nmol g^−1 wet gel, peptide 2-20 µM in PBS, stirred 12 h, free peptide by NanoDrop absorbance 240 nm, Langmuir isotherm, mean ± SD): 86.13 ± 0.18 nmol g^−1 wet gel
Kd (immobilized STAT3; immobilized STAT3 85 nmol g^−1 wet gel, peptide 2-20 µM in PBS, stirred 12 h, free peptide by NanoDrop absorbance 240 nm, Langmuir isotherm, mean ± SD, read-out: equilibrium dissociation constant KD): 80 ± 20 nM
interaction model (stoichiometry) with STAT3 (immobilized STAT3; maximum adsorption compared with actual amount of immobilized STAT3): 1:1 interaction model
Substance: C16: peptide spanning SHF amino acids 388–421, palmitic acid at the N-terminus, amidated C-terminus, 3× His tags added to the C-terminal (PFSSVPEIVHHYASRKLPIKGAEHMSLLYPVAIR; palmitic acid at the N-terminus; amidated C-terminus; left off: 3× His tags, C-terminal, kept)
KD of C16 compared with that of the SC peptide (immobilized STAT3; static adsorption on immobilized STAT3, C16 vs SC): two orders of magnitude lower than that of the SC peptide
cell growth inhibition (U87 cells): inhibited cell growth with concentration dependence
cell growth inhibition (U118 cells): inhibited cell growth with concentration dependence

— publication PMC9475553, “SHF Acts as a Novel Tumor Suppressor in Glioblastoma Multiforme by Disrupting STAT3 Dimerization” (Advanced Science, 2022)
